Assays:
[1] = system: Saccharomyces cerevisiae; assay: protein stability index of tFT-peptide fusion in wild type (PSI (0-1 scale)); higher = more stable (slower turnover); conditions: genetic background: wild type
Procedure: (§1)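 MPS profiling in S. cerevisiae of two library types built from selected 12-aa C-degron peptides (IN1, IN2, LN1, LN3, VN2, R1-R5, W1-W3, Atg1 and Rpa12 C-termini): saturation mutagenesis libraries and C-terminal +1 capping libraries (13 aa). Each peptide is fused to the C-terminus of a sfGFP-mCherry timer, after a GGGS linker. Cells are FACS-sorted into 8 mCherry/sfGFP bins and sequenced. PSI runs from 0 (unstable) to 1 (stable), measured once in wild type and in the das1Δ or doa10Δ background.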

[2] = system: Saccharomyces cerevisiae; assay: protein stability index of tFT-peptide fusion in deletion strain of DAS1 (PSI (0-1 scale)); higher = more stable (slower turnover)
Procedure: as §1
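For protein stability index of tFT-peptide fusion in deletion strain of DAS1 in this document: PSI is a weighted mean of each variant's read distribution over the sorted stability bins, computed only for variants having over 10 reads in total.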
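For protein stability index of tFT-peptide fusion in wild type in this document: PSI derived as read-weighted mean over the 8 sorting bins, only variants exceeding 10 total reads kept, mCherry placed adjacent to the peptide and sfGFP distal.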

Sequence | protein stability index [1] | protein stability index [2]
ARWRVGLWRGASK | 0.672 | 0.622
ARWRVGLWRGAV | 0.395 | 0.688
ARWRVGLWRGFS | 0.599 | 0.678
ARWRVGLWRGQS | 0.416 | 0.695
ARWRVGLWRGWS | 0.668 | 0.69
ARWRVGLWRLAS | 0.0888 | 0.672
ARWRVGQWRGAS | 0.614 | 0.682
ARWRVNLWRGAS | 0.34 | 0.708
ARWRVRLWRGAS | 0.333 | 0.671
ARWRWGLWRGAS | 0.55 | 0.681
ASMRWTFRYWVN | 0.0684 | 0.602
ATSCGYKFRTNN | 0.235 | 0.671
CASCGYKFRTNN | 0.281 | 0.714
CLSCGYKFRTNN | 0.228 | 0.701
CTSCAYKFRTNN | 0.172 | 0.665
CTSCDYKFRTNN | 0.556 | 0.689
CTSCGTKFRTNN | 0.552 | 0.693
CTSCGWKFRTNN | 0.306 | 0.673
CTSCGYGFRTNN | 0.594 | 0.693
CTSCGYKFRANN | 0.538 | 0.698
CTSCGYKFRNNN | 0.681 | 0.703
CTSCGYKFRTFN | 0.335 | 0.712
CTSCGYKFRTNH | 0.191 | 0.68
CTSCGYKFRTNNM | 0.679 | 0.69

Sequence | protein stability index [1] | protein stability index [2]
CTSCGYKFRTSN | 0.273 | 0.704
CTSCGYKFRTVN | 0.15 | 0.705
CTSCGYKGRTNN | 0.658 | 0.674
CTSCGYKKRTNN | 0.474 | 0.692
CTSCGYKNRTNN | 0.705 | 0.696
CTSCGYKPRTNN | 0.693 | 0.683
CTSCGYRFRTNN | 0.464 | 0.679
CTSCKYKFRTNN | 0.376 | 0.69
CTSCQYKFRTNN | 0.334 | 0.689
CTSHGYKFRTNN | 0.242 | 0.689
CTSIGYKFRTNN | 0.153 | 0.695
CTSPGYKFRTNN | 0.254 | 0.686
CTSSGYKFRTNN | 0.413 | 0.634
CTYCGYKFRTNN | 0.269 | 0.705
FGMRWTFRYWVN | 0.0525 | 0.53
FIMRWTFRYWVN | 0.0251 | 0.251
FRWRVGLWRGAS | 0.0957 | 0.668
FSFRWTFRYWVN | 0.089 | 0.54
FSLRWTFRYWVN | 0.0436 | 0.467
FSMHWTFRYWVN | 0.0392 | 0.664
FSMRATFRYWVN | 0.0843 | 0.545
FSMRETFRYWVN | 0.048 | 0.596
FSMRTTFRYWVN | 0.0969 | 0.623
FSMRWFFRYWVN | 0.0657 | 0.602

Sequence | protein stability index [1] | protein stability index [2]
FSMRWTFKYWVN | 0.0423 | 0.485
FSMRWTFLYWVN | 0.0672 | 0.383
FSMRWTFNYWVN | 0.0909 | 0.719
FSMRWTFRYDVN | 0.524 | 0.572
FSMRWTFRYWAN | 0.101 | 0.537
FSMRWTFRYWKN | 0.634 | 0.524
FSMRWTFRYWPN | 0.525 | 0.528
FSMRWTFRYWVH | 0.094 | 0.439
FSMRWTFRYWVI | 0.147 | 0.461
FSMRWTFRYWVNE | 0.532 | 0.542
FSMRWTFRYWVNL | 0.139 | 0.549
FSMRWTFRYWVNW | 0.436 | 0.534
FSMRWTFRYWVV | 0.0991 | 0.526
FSMRWTQRYWVN | 0.117 | 0.545
FSMRWWFRYWVN | 0.0988 | 0.533
FSMTWTFRYWVN | 0.0417 | 0.568
FYMRWTFRYWVN | 0.044 | 0.351
GRWRVGLWRGAS | 0.447 | 0.691
IRGAVGGWRLVG | 0.154 | 0.681
KAHKKGQKQKIN | 0.111 | 0.858
KDKRNHLIKLLN | 0.0684 | 0.723
KEHKKGQKQKIN | 0.127 | 0.634
KHHKKGQKQKIN | 0.101 | 0.581
KKHFKGQKQKIN | 0.0456 | 0.594

Sequence | protein stability index [1] | protein stability index [2]
KKHIKGQKQKIN | 0.0778 | 0.598
KKHKFGQKQKIN | 0.0916 | 0.578
KKHKKGEKQKIN | 0.082 | 0.658
KKHKKGQEQKIN | 0.109 | 0.543
KKHKKGQKQDIN | 0.795 | 0.601
KKHKKGQKQKIE | 0.567 | 0.585
KKHKKGQKQKIF | 0.218 | 0.602
KKHKKGQKQKIG | 0.226 | 0.591
KKHKKGQKQKII | 0.12 | 0.632
KKHKKGQKQKINC | 0.333 | 0.658
KKHKKGQKQKINF | 0.652 | 0.669
KKHKKGQKQKINK | 0.647 | 0.659
KKHKKGQKQKINM | 0.638 | 0.662
KKHKKGQKQKINT | 0.62 | 0.662
KKHKKGQKQKIW | 0.637 | 0.558
KKHKKGQKQKYN | 0.309 | 0.586
KKHKKGQTQKIN | 0.0981 | 0.591
KKHKKGQVQKIN | 0.152 | 0.649
KKHKKSQKQKIN | 0.0607 | 0.584
KKHKLGQKQKIN | 0.0725 | 0.58
KKIKKGQKQKIN | 0.06 | 0.58
KKQKKGQKQKIN | 0.177 | 0.566
KKWKKGQKQKIN | 0.0754 | 0.561
KRHKKGQKQKIN | 0.0723 | 0.634

Sequence | protein stability index [1] | protein stability index [2]
KVVYLSCVACIN | 0.0215 | 0.0792
LKILPQKMNHQN | 0.417 | 0.686
LKILRIKMNHQN | 0.19 | 0.66
LKILRNKMNHQN | 0.269 | 0.703
LKILRQAMNHQN | 0.23 | 0.658
LKILRQDMNHQN | 0.647 | 0.643
LKILRQGMNHQN | 0.49 | 0.667
LKILRQHMNHQN | 0.201 | 0.662
LKILRQKGNHQN | 0.655 | 0.676
LKILRQKHNHQN | 0.322 | 0.67
LKILRQKMNCQN | 0.207 | 0.673
LKILRQKMNEQN | 0.253 | 0.663
LKILRQKMNHAN | 0.196 | 0.657
LKILRQKMNHIN | 0.183 | 0.671
LKILRQKMNHQE | 0.507 | 0.675
LKILRQKMNHQM | 0.244 | 0.656
LKILRQKMNHQNR | 0.677 | 0.673
LKILRQKMNHQNS | 0.521 | 0.671
LKILRQKMNHQV | 0.189 | 0.671
LKILRQKMNHQW | 0.255 | 0.679
LKILRQKMNTQN | 0.212 | 0.675
